# Laboratory results as given in patent US20110300138A1 (published 2011).
# Experiments:
# Test in all cases: cell-based or functional assay
# [1] = target: wild type TSHR expressed in CHO cells (human) (UniProt P16473)
# [2] = target: TSHR with Arg255 mutated to Asp expressed in CHO cells (human) (UniProt P16473)
# [3] = target: wild type TSHR (human TSH receptor, full length) expressed in CHO cells (human) (UniProt P16473)
# [4] = target: wild type TSHR (human TSH receptor) expressed in CHO cells (human) (UniProt P16473)
# [5] = target: TSHR with Gln235 mutated to Ala expressed in CHO cells (human) (UniProt P16473)
# [6] = target: TSHR with Asp276 mutated to Ala, expressed in CHO cells (human) (UniProt P16473)
substance,measurement,setting,value
TSH (ligand),% inhibition of TSH stimulation; TSH (2) control,[1],2%
same,Cyclic AMP produced; TSH 3 ng/mL alone,[1],66.5 pmol/mL
same,Cyclic AMP produced; TSH (2),[1],64.8 pmol/mL
same,% inhibition of TSH stimulation; TSH (2) control,[2],13%
same,Cyclic AMP produced; TSH 3 ng/mL alone,[2],57.8 pmol/mL
same,Cyclic AMP produced; TSH (2),[2],50.2 pmol/mL
same,Mutated/wild type (%) of cyclic AMP produced; TSH 3 ng/mL alone,[2],87%
same,Mutated/wild type (%) of cyclic AMP produced; TSH (2),[2],77%
same,% inhibition of TSH stimulation; TSH (2) control,[3],0%
same,% inhibition of TSH stimulation; TSH (2) control; Experiment 1,[3],0.1%
same,% inhibition of TSH stimulation; TSH (2) control; Experiment 2,[3],0%
same,"Cyclic AMP produced (pmol/mL), TSH 0.01 ng/mL, Experiment 1",[3],4.36 pmol/mL
same,"Cyclic AMP produced (pmol/mL), TSH 0.01 ng/mL, Experiment 2",[3],2.21 pmol/mL
same,"Cyclic AMP produced (pmol/mL), TSH 0.01 ng/mL, Experiment 3",[3],5.19 pmol/mL
same,"Cyclic AMP produced (pmol/mL), TSH 0.03 ng/mL, Experiment 1",[3],9.19 pmol/mL
same,"Cyclic AMP produced (pmol/mL), TSH 0.03 ng/mL, Experiment 2",[3],3.61 pmol/mL
same,"Cyclic AMP produced (pmol/mL), TSH 0.03 ng/mL, Experiment 3",[3],9.82 pmol/mL
same,"Cyclic AMP produced (pmol/mL), TSH 0.1 ng/mL, Experiment 1",[3],26.9 pmol/mL
same,"Cyclic AMP produced (pmol/mL), TSH 0.1 ng/mL, Experiment 2",[3],7.86 pmol/mL
same,"Cyclic AMP produced (pmol/mL), TSH 0.1 ng/mL, Experiment 3 (duplicate determination)",[3],25 pmol/mL
same,"Cyclic AMP produced (pmol/mL), TSH 0.3 ng/mL, Experiment 1",[3],42 pmol/mL
same,"Cyclic AMP produced (pmol/mL), TSH 0.3 ng/mL, Experiment 2",[3],27.1 pmol/mL
same,"Cyclic AMP produced (pmol/mL), TSH 0.3 ng/mL, Experiment 3",[3],91.7 pmol/mL
same,"Cyclic AMP produced (pmol/mL), TSH 1 ng/mL, Experiment 1",[3],60.1 pmol/mL
same,"Cyclic AMP produced (pmol/mL), TSH 1 ng/mL, Experiment 2",[3],54.2 pmol/mL
same,"Cyclic AMP produced (pmol/mL), TSH 1 ng/mL, Experiment 3",[3],192 pmol/mL
same,"Cyclic AMP produced (pmol/mL), TSH 3 ng/mL, Experiment 1",[3],61.3 pmol/mL
same,"Cyclic AMP produced (pmol/mL), TSH 3 ng/mL, Experiment 2",[3],58.1 pmol/mL
same,"Cyclic AMP produced (pmol/mL), TSH 3 ng/mL, Experiment 3",[3],226 pmol/mL
same,Cyclic AMP produced; TSH 3 ng/mL,[3],50 pmol/mL
same,Cyclic AMP produced; TSH 3 ng/mL; Experiment 1,[3],67.7 pmol/mL
same,Cyclic AMP produced; TSH 3 ng/mL; Experiment 2,[3],60.7 pmol/mL
same,Cyclic AMP produced; TSH (2),[3],53.1 pmol/mL
same,Cyclic AMP produced; TSH (2); Experiment 1,[3],67.5 pmol/mL
same,Cyclic AMP produced; TSH (2); Experiment 2,[3],67.8 pmol/mL
same,"% inhibition of TSH stimulation; TSH (2), run at the end of assay",[4],0%
same,"% inhibition of TSH stimulation; TSH (2), run at the end of assay; Experiment 1",[4],8%
same,"% inhibition of TSH stimulation; TSH (2), run at the end of assay; Experiment 2",[4],0%
same,"Cyclic AMP produced (pmol/mL), TSH 0.01 ng/mL",[4],2.45 pmol/mL
same,"Cyclic AMP produced (pmol/mL), TSH 0.01 ng/mL, Experiment 1",[4],1.86 pmol/mL
same,"Cyclic AMP produced (pmol/mL), TSH 0.01 ng/mL, Experiment 2",[4],2.49 pmol/mL
same,"Cyclic AMP produced (pmol/mL), TSH 0.03 ng/mL",[4],4.78 pmol/mL
same,"Cyclic AMP produced (pmol/mL), TSH 0.03 ng/mL, Experiment 1",[4],3.32 pmol/mL
same,"Cyclic AMP produced (pmol/mL), TSH 0.03 ng/mL, Experiment 2",[4],5.12 pmol/mL
same,"Cyclic AMP produced (pmol/mL), TSH 0.1 ng/mL",[4],16.2 pmol/mL
same,"Cyclic AMP produced (pmol/mL), TSH 0.1 ng/mL, Experiment 1",[4],14.6 pmol/mL
same,"Cyclic AMP produced (pmol/mL), TSH 0.1 ng/mL, Experiment 2",[4],13.7 pmol/mL
same,"Cyclic AMP produced (pmol/mL), TSH 0.3 ng/mL",[4],44.3 pmol/mL
same,"Cyclic AMP produced (pmol/mL), TSH 0.3 ng/mL, Experiment 1",[4],48.5 pmol/mL
same,"Cyclic AMP produced (pmol/mL), TSH 0.3 ng/mL, Experiment 2",[4],39.9 pmol/mL
same,"Cyclic AMP produced (pmol/mL), TSH 1 ng/mL",[4],77.2 pmol/mL
same,"Cyclic AMP produced (pmol/mL), TSH 1 ng/mL, Experiment 1",[4],91.2 pmol/mL
same,"Cyclic AMP produced (pmol/mL), TSH 1 ng/mL, Experiment 2",[4],74.3 pmol/mL
same,"Cyclic AMP produced (pmol/mL), TSH 3 ng/mL",[4],95.5 pmol/mL
same,"Cyclic AMP produced (pmol/mL), TSH 3 ng/mL, Experiment 1",[4],119 pmol/mL
same,"Cyclic AMP produced (pmol/mL), TSH 3 ng/mL, Experiment 2",[4],88.3 pmol/mL
same,"Cyclic AMP produced (pmol/mL), wild type TSHR, TSH 0.01 ng/mL",[4],2.48 pmol/mL
same,"Cyclic AMP produced (pmol/mL), wild type TSHR, TSH 0.01 ng/mL, Experiment 1",[4],2.6 pmol/mL
same,"Cyclic AMP produced (pmol/mL), wild type TSHR, TSH 0.01 ng/mL, Experiment 2",[4],3.89 pmol/mL
same,"Cyclic AMP produced (pmol/mL), wild type TSHR, TSH 0.03 ng/mL",[4],4.62 pmol/mL
same,"Cyclic AMP produced (pmol/mL), wild type TSHR, TSH 0.03 ng/mL, Experiment 1",[4],4.27 pmol/mL
same,"Cyclic AMP produced (pmol/mL), wild type TSHR, TSH 0.03 ng/mL, Experiment 2",[4],5.52 pmol/mL
same,"Cyclic AMP produced (pmol/mL), wild type TSHR, TSH 0.1 ng/mL",[4],17.6 pmol/mL
same,"Cyclic AMP produced (pmol/mL), wild type TSHR, TSH 0.1 ng/mL, Experiment 1",[4],10.9 pmol/mL
same,"Cyclic AMP produced (pmol/mL), wild type TSHR, TSH 0.1 ng/mL, Experiment 2",[4],13.3 pmol/mL
same,"Cyclic AMP produced (pmol/mL), wild type TSHR, TSH 0.3 ng/mL",[4],40.4 pmol/mL
same,"Cyclic AMP produced (pmol/mL), wild type TSHR, TSH 0.3 ng/mL, Experiment 1",[4],32.3 pmol/mL
same,"Cyclic AMP produced (pmol/mL), wild type TSHR, TSH 0.3 ng/mL, Experiment 2",[4],35.4 pmol/mL
same,"Cyclic AMP produced (pmol/mL), wild type TSHR, TSH 1 ng/mL",[4],92.5 pmol/mL
same,"Cyclic AMP produced (pmol/mL), wild type TSHR, TSH 1 ng/mL, Experiment 1",[4],85 pmol/mL
same,"Cyclic AMP produced (pmol/mL), wild type TSHR, TSH 1 ng/mL, Experiment 2",[4],82.1 pmol/mL
same,"Cyclic AMP produced (pmol/mL), wild type TSHR, TSH 3 ng/mL",[4],104 pmol/mL
same,"Cyclic AMP produced (pmol/mL), wild type TSHR, TSH 3 ng/mL, Experiment 1",[4],124 pmol/mL
same,"Cyclic AMP produced (pmol/mL), wild type TSHR, TSH 3 ng/mL, Experiment 2",[4],91.7 pmol/mL
same,"Cyclic AMP produced, wild type TSHR, TSH 0.01 ng/mL",[4],1.41 pmol/mL
same,"Cyclic AMP produced, wild type TSHR, TSH 0.03 ng/mL",[4],1.99 pmol/mL
same,"Cyclic AMP produced, wild type TSHR, TSH 0.1 ng/mL",[4],5.54 pmol/mL
same,"Cyclic AMP produced, wild type TSHR, TSH 0.3 ng/mL",[4],16.3 pmol/mL
same,"Cyclic AMP produced, wild type TSHR, TSH 1 ng/mL",[4],44.2 pmol/mL
same,"Cyclic AMP produced, wild type TSHR, TSH 3 ng/mL",[4],53.9 pmol/mL
same,"Cyclic AMP produced, TSH 0.01 ng/mL, Experiment 1",[5],1.75 pmol/mL
same,"Cyclic AMP produced, TSH 0.01 ng/mL, Experiment 2",[5],3.42 pmol/mL
same,"Cyclic AMP produced, TSH 0.03 ng/mL, Experiment 1",[5],2.89 pmol/mL
same,"Cyclic AMP produced, TSH 0.03 ng/mL, Experiment 2",[5],4.55 pmol/mL
same,"Cyclic AMP produced, TSH 0.1 ng/mL, Experiment 1",[5],5.97 pmol/mL
same,"Cyclic AMP produced, TSH 0.1 ng/mL, Experiment 2",[5],7.77 pmol/mL
same,"Cyclic AMP produced, TSH 0.3 ng/mL, Experiment 1",[5],17.6 pmol/mL
same,"Cyclic AMP produced, TSH 0.3 ng/mL, Experiment 2",[5],17.1 pmol/mL
same,"Cyclic AMP produced, TSH 1 ng/mL, Experiment 1",[5],44.2 pmol/mL
same,"Cyclic AMP produced, TSH 1 ng/mL, Experiment 2",[5],31.7 pmol/mL
same,Cyclic AMP produced; TSH 3 ng/mL; Experiment 1,[5],46.6 pmol/mL
same,Cyclic AMP produced; TSH 3 ng/mL; Experiment 2,[5],37.1 pmol/mL
same,"Experiment 1: % inhibition of TSH stimulation; TSH (2), run at the end of assay",[5],13%
same,Experiment 1: Mutated/wild type (%) of cyclic AMP produced; TSH 3 ng/mL,[5],70%
same,"Experiment 1: Mutated/wild type (%) of cyclic AMP produced; TSH (2) 3 ng/mL, run at the end of assay",[5],61%
same,"Experiment 2: % inhibition of TSH stimulation; TSH (2), run at the end of assay",[5],3%
same,Experiment 2: Mutated/wild type (%) of cyclic AMP produced; TSH 3 ng/mL,[5],100%
same,"Experiment 2: Mutated/wild type (%) of cyclic AMP produced; TSH (2) 3 ng/mL, run at the end of assay",[5],71%
same,"Mutated/Wild type (%) of cyclic AMP produced, TSH 0.01 ng/mL, Experiment 1",[5],161%
same,"Mutated/Wild type (%) of cyclic AMP produced, TSH 0.01 ng/mL, Experiment 2",[5],177%
same,"Mutated/Wild type (%) of cyclic AMP produced, TSH 0.03 ng/mL, Experiment 1",[5],125%
same,"Mutated/Wild type (%) of cyclic AMP produced, TSH 0.03 ng/mL, Experiment 2",[5],165%
same,"Mutated/Wild type (%) of cyclic AMP produced, TSH 0.1 ng/mL, Experiment 1",[5],91%
same,"Mutated/Wild type (%) of cyclic AMP produced, TSH 0.1 ng/mL, Experiment 2",[5],107%
same,"Mutated/Wild type (%) of cyclic AMP produced, TSH 0.3 ng/mL, Experiment 1",[5],67%
same,"Mutated/Wild type (%) of cyclic AMP produced, TSH 0.3 ng/mL, Experiment 2",[5],68%
same,"Mutated/Wild type (%) of cyclic AMP produced, TSH 1 ng/mL, Experiment 1",[5],65%
same,"Mutated/Wild type (%) of cyclic AMP produced, TSH 1 ng/mL, Experiment 2",[5],62%
same,Mutated/wild type (%) of cyclic AMP produced; TSH 3 ng/mL; Experiment 1,[5],56%
same,Mutated/wild type (%) of cyclic AMP produced; TSH 3 ng/mL; Experiment 2,[5],53%
same,"Cyclic AMP produced (pmol/mL), TSH 0.01 ng/mL",[6],14.3 pmol/mL
same,"Cyclic AMP produced (pmol/mL), TSH 0.03 ng/mL",[6],17.6 pmol/mL
same,"Cyclic AMP produced (pmol/mL), TSH 0.1 ng/mL",[6],21.7 pmol/mL
same,"Cyclic AMP produced (pmol/mL), TSH 0.3 ng/mL",[6],45.6 pmol/mL
same,"Cyclic AMP produced (pmol/mL), TSH 1 ng/mL",[6],68.3 pmol/mL
same,"Cyclic AMP produced (pmol/mL), TSH 3 ng/mL",[6],76 pmol/mL
same,"Experiment 1; % inhibition of TSH stimulation; TSH (2) 3 ng/mL, run at the end of assay",[6],6%
same,Experiment 1; Mutated/wild type (%) of cyclic AMP produced; TSH 3 ng/mL,[6],91%
same,"Experiment 1; Mutated/wild type (%) of cyclic AMP produced; TSH (2) 3 ng/mL, run at the end of assay",[6],90%
same,Experiment 1; cyclic AMP produced; TSH 3 ng/mL,[6],71.2 pmol/mL
same,"Experiment 1; cyclic AMP produced; TSH (2) 3 ng/mL, run at the end of assay",[6],67 pmol/mL
same,"Experiment 2; % inhibition of TSH stimulation; TSH (2) 3 ng/mL, run at the end of assay",[6],18%
same,Experiment 2; Mutated/wild type (%) of cyclic AMP produced; TSH 3 ng/mL,[6],78%
same,"Experiment 2; Mutated/wild type (%) of cyclic AMP produced; TSH (2) 3 ng/mL, run at the end of assay",[6],66%
same,Experiment 2; cyclic AMP produced; TSH 3 ng/mL,[6],74.8 pmol/mL
same,"Experiment 2; cyclic AMP produced; TSH (2) 3 ng/mL, run at the end of assay",[6],61.2 pmol/mL
same,"Mutated/Wild type (%), TSH 0.01 ng/mL",[6],583%
same,"Mutated/Wild type (%), TSH 0.03 ng/mL",[6],369%
same,"Mutated/Wild type (%), TSH 0.1 ng/mL",[6],134%
same,"Mutated/Wild type (%), TSH 0.3 ng/mL",[6],103%
same,"Mutated/Wild type (%), TSH 1 ng/mL",[6],88%
same,"Mutated/Wild type (%), TSH 3 ng/mL",[6],80%
